According to patent US20240352452, “CRISPR-BASED PROTEIN BARCODING AND SURFACE ASSEMBLY” (The Brigham and Women's Hospital, Inc., published 2024):
Residue numbers refer to the chain shown, from its start.

Assays:
dCas9-6His [1] = biological target: T1, dCas9-6His (UniProt Q99ZW2 SEQ:1-1368); experiment: dsDNA microarray, perfect match; PAM NGG; conditions: tags: C-terminal 6His (pdCas9-bacteria, Addgene #44249 derived); label: Cy3-dUTP
dCas9-scFv B1-182.1 = dCas9-scFv B1-182.1 (UniProt Q99ZW2 SEQ:1-1368); experiment: dsDNA microarray; detected via spike antigen and CR3022; PAM NGG; conditions: tags: C-terminal anti-spike scFv B1-182.1 fusion and 6His (Addgene #186421); label: Cy3-dUTP
dCas9-HA [2] = biological target: T2, dCas9-HA (UniProt Q99ZW2 SEQ:1-1368); experiment: dsDNA microarray, anti-HA; PAM NGG; conditions: label: Cy3-dUTP
dCas9-6His [3] = biological target: T1, dCas9-6His; experiment: dsDNA microarray, anti-6His; PAM NGG; 37 C 16 h, 50 mM Tris pH 7.4, 150 mM NaCl; conditions: tags: C-terminal 6His (pdCas9-bacteria, Addgene #44249 derived); label: Cy3-dUTP
dCas9-HA [4] = biological target: T2, dCas9-HA; experiment: no-PAM control; binding depended on PAM; conditions: label: Cy3-dUTP
dCas9-6His [5] = biological target: T1, dCas9-6His; experiment: off-target probe with PAM; dsDNA microarray; conditions: tags: C-terminal 6His (pdCas9-bacteria, Addgene #44249 derived); label: Cy3-dUTP
dCas9-myc [6] = biological target: T3, dCas9-myc (UniProt Q99ZW2 SEQ:1-1368); experiment: dsDNA microarray, anti-myc; PAM NGG; conditions: label: Cy3-dUTP
dCas9-myc [7] = biological target: T3, dCas9-myc; experiment: no-PAM control; binding depended on PAM; conditions: label: Cy3-dUTP

B1: sgRNA spacer CACUGUU ; probe for G4 (ssRNA ; dsDNA)
RNA: CACUGUUUAACAAGCCCGUCGUUUUAGAGCUAGAAAUAGCAAGUUAAAAUAAGGCUAGUCCGUUAUCAACUUGAAAAAGUGGCACCGAGUCGGUGC
DNA 1: GAGCGACGCTGCACCAGACGGGCTTGTTAAACAGTGCCCGACCTCACCCG
DNA 2: CGGGTGAGGTCGGGCACTGTTTAACAAGCCCGTCTGGTGCAGCGTCGCTC
binding result (dCas9-6His [1]): binds

B2: sgRNA spacer AGAGACU ; probe for G3 (ssRNA ; dsDNA)
RNA: AGAGACUGCCCGACACAUCUGUUUUAGAGCUAGAAAUAGCAAGUUAAAAUAAGGCUAGUCCGUUAUCAACUUGAAAAAGUGGCACCGAGUCGGUGC
DNA 1: GAGCGACGCTGCACCAAGATGTGTCGGGCAGTCTCTCCCGACCTCACCCG
DNA 2: CGGGTGAGGTCGGGAGAGACTGCCCGACACATCTTGGTGCAGCGTCGCTC
binding result (dCas9-6His [1]): binds

B3: sgRNA spacer UCCAUAG ; probe for G5 (ssRNA ; dsDNA)
RNA: UCCAUAGAUUUCUCCGUGAGGUUUUAGAGCUAGAAAUAGCAAGUUAAAAUAAGGCUAGUCCGUUAUCAACUUGAAAAAGUGGCACCGAGUCGGUGC
DNA 1: GAGCGACGCTGCACCACTCACGGAGAAATCTATGGACCCGACCTCACCCG
DNA 2: CGGGTGAGGTCGGGTCCATAGATTTCTCCGTGAGTGGTGCAGCGTCGCTC
binding result (dCas9-scFv B1-182.1): binds
binding result (dCas9-6His [1]): binds

B4: sgRNA spacer CCGUACC ; probe for G1 (ssRNA ; dsDNA)
RNA: CCGUACCUAGAUACACUCAAGUUUUAGAGCUAGAAAUAGCAAGUUAAAAUAAGGCUAGUCCGUUAUCAACUUGAAAAAGUGGCACCGAGUCGGUGC
DNA 1: GAGCGACGCTGCACCATTGAGTGTATCTAGGTACGGCCCGACCTCACCCG
DNA 2: CGGGTGAGGTCGGGCCGTACCTAGATACACTCAATGGTGCAGCGTCGCTC
binding result (dCas9-HA [2]): binds
binding result (dCas9-6His [3]): binds

B5: sgRNA spacer CCGUACC ; probe for G1, no PAM (ssRNA ; dsDNA)
RNA: B4 RNA
DNA 1: B4 DNA 1 with C15G
DNA 2: B4 DNA 2 with G36C
binding result (dCas9-HA [4]): no binding

B6: sgRNA spacer CCGUACC ; probe for G2 (ssRNA ; dsDNA)
RNA: B4 RNA
DNA 1: GAGCGACGCTGCACCAATGCGGAGGGTTTCTTTTATCCCGACCTCACCCG
DNA 2: CGGGTGAGGTCGGGATAAAAGAAACCCTCCGCATTGGTGCAGCGTCGCTC
binding result (dCas9-6His [5]): no binding

B7: sgRNA spacer AUAAAAG ; probe for G2 (ssRNA ; dsDNA)
RNA: AUAAAAGAAACCCUCCGCAUGUUUUAGAGCUAGAAAUAGCAAGUUAAAAUAAGGCUAGUCCGUUAUCAACUUGAAAAAGUGGCACCGAGUCGGUGC
DNA 1: B6 DNA 1
DNA 2: B6 DNA 2
binding result (dCas9-myc [6]): binds

B8: sgRNA spacer AUAAAAG ; probe for G2, no PAM (ssRNA ; dsDNA)
RNA: B7 RNA
DNA 1: B6 DNA 1 with C15G
DNA 2: B6 DNA 2 with G36C
binding result (dCas9-myc [7]): no binding
